Assay results reported in patent US20070134249A1 (GENITOPE, published 2007).

Legend:
Experiment in all cases: ELISA
Set-up in all cases: key: 0 = <0.5 OD, 1 = 0.5-1.0 OD, 4 = 1-4 OD
610 = molecular target: T1, 610
T1 construct: H3-23 K4-1; also called PIN610
From the text: (§1) Before specificity screening, all of the clonal immunogen-positive hybridoma supernatants were re-screened on the immunogen, a non-family member Id protein, and KLH, if animals were immunized with Id protein that has been conjugated KLH. As described above, this screen identifies HC-specific clones but not mAbs against the light chain constant region. Clones identified positive to the immunogen and KLH were […]. Those found positive to the immunogen but not to the non-family member Id protein or KLH were tittered on the immunogen. In addition to normalizing for different binding affinities and concentrations, each hybridoma supernatant was titered on the fully human form of the Id protein used as the immunogen(s) for the V regions. The titer or dilution resulting in an ELISA absorbance of 2.5 to 3 OD after 30 min. incubation time was then used. Hybridoma specificity was determined by screening against available Id proteins expressing the same HV and KV or LV as well as different HV, KV and LV. The final ELISA results are expressed as follows: 0 (<0.5 OD), 1 (0.5-1.0 OD), or 4 (1-4 OD). Positive hybridoma supernatants are categorized according to specificity: anti-Id, anti-constant region (HC, KC or LC), or V region (HV, KV, LV family or family member).
(§2) In general, the fully human Id protein or proteins containing the immunogen V regions were coated onto 96-well ELISA plates at 2.5-5 ug/mL in carbonate buffer pH 9.6 and incubated at 4° C. for up to 14 days. On the day of the ELISA, plates were brought to RT and blocked with Tris-Tween-20, pH 7.6 for 15-60 min. at RT. Following a NaCl and Triton X-100 wash, diluted hybridoma cell culture supernatants were incubated overnight at 4° C. Hybridoma supernatant dilutions ranged from 1:2 to 1:25 and were prepared in PBS with 5% BSA. Plates were washed and incubated with HRP-conjugated goat anti-mouse IgG-specific detecting antibody. A chromogenic substrate (TMB) was used to measure the amount of mouse antibody bound to each well. The reaction was stopped at or before 30 minutes with IN H2SO4 and plates were read immediately. Absorbency readings at 450 nm ranging between 0-4 OD and using Molecular Devices plate reader and SOFTMAX PRO software.

805 = molecular target: T2, 805
T2 construct: H3-7 K3-11; also called PIN805
From the text: as §1, §2

902 = molecular target: T3, 902
T3 construct: H3-7 K3-20; also called PIN902
From the text: as §1, §2

712 = molecular target: T4, 712
T4 construct: H3-23 K4-1; also called PIN712
From the text: as §1, §2

626 = molecular target: T5, 626
T5 construct: H5-51 K4-1; also called PIN626
From the text: as §1, §2

112 = molecular target: T6, 112
T6 construct: H4-39 K4-1; also called PIN112
From the text: as §1, §2

199 = molecular target: T7, 199
T7 construct: H3-7 K4-1; also called PIN199
From the text: as §1, §2

628 = molecular target: T8, 628
T8 construct: fully human Id protein; also called PIN628
From the text: as §1, §2

763 = molecular target: T9, 763
T9 construct: H4-59 K4-1; also called PIN763
From the text: as §1, §2

844 = molecular target: T10, 844
T10 construct: H3-7 K4-1; also called PIN844
From the text: as §1, §2

204 = molecular target: T11, 204
T11 construct: H3-15 K4-1; also called PIN204
From the text: as §1, §2

566 = molecular target: T12, 566
T12 construct: H3-73 K4-1; also called PIN566
From the text: as §1, §2

912 = molecular target: T13, 912
T13 construct: H3-23 K4-1; also called PIN912
From the text: as §1, §2

950 = molecular target: T14, 950
T14 construct: H4-59 K4-1; also called PIN950
From the text: as §1, §2

1014 = molecular target: T15, 1014
T15 construct: H3-53 K4-1; also called PIN1014
From the text: as §1, §2

1145 = molecular target: T16, 1145
T16 construct: H3-11 K4-1; also called PIN1145
From the text: as §1, §2

1154 = molecular target: T17, 1154
T17 construct: H4-61 K4-1; also called PIN1154
From the text: as §1, §2

899 = molecular target: T18, 899
T18 construct: H4-34 K4-1; also called PIN899
From the text: as §1, §2

913 = molecular target: T19, 913
T19 construct: fully human Id protein; also called PIN913
From the text: as §1, §2

[1] = molecular target: T20, PIN185 fully human Id protein (human)
T20 construct: Patient-derived idiotype immunoglobulin used as control antigen in SPR
From the text: as §1, §2

Measured: grade

T8 sequence (VH, as listed by the source, chain 1 of 2): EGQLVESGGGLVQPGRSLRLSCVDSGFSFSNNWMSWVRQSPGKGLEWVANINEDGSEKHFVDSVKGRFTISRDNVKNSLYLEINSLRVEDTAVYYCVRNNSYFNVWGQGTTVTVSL
T8 sequence (VL, as listed by the source, chain 2 of 2): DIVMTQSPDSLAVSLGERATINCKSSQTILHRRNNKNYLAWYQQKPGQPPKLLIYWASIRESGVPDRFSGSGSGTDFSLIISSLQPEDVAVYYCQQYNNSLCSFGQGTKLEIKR
T19 sequence (heavy, as listed by the source): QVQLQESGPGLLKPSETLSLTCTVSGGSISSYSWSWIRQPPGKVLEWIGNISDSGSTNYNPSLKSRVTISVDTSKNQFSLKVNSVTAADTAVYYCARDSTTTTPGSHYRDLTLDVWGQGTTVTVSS

B1: mAb clone 12C3 (antibody, V domains shown)
VH: EVKLVESGGGLVQPGGSLSLSCAASGFTYTDYYMNWVRQPPGKALEWLALIRNKANGYTTEYSASLKGRFTISRDNSQSILYLQMNALRAEDSATYYCVRENINYYFDYWGQGTTLTVSS
VL: DIVLTQSPASLAVSLGQRATISCRASESVEYFGASLMQWYQQKSGQPPKLLIRAATNVESGVPARFSGSGSGTDFSLNIHPVEEDDIAMYFCQQSRKVPWTFGGGTKLEIKR
notes: Mouse hybridoma mAb, fusions 20/21 (PIN628 V regions)
4: 610 | 805 | 902 | 712 | 626 | 112 | 199 | 628 | 763 | 844 | 204 | 566 | 912 | 950 | 1014 | 1145 | 1154 | 899 | 913 | [1]
